In patent US7223537B2, “Detection of molecular interactions by reporter subunit complementation” (The Board of Trustees of the Leland Stanford Junior …, priority 1997, dated 2007):
One block for each compound: values may come before it.

Experiments:
[1] = test system: T1, human EGF receptor; assay: EGF receptor dimerization monitored by β-gal complementation (FACS) in C2F3 mouse myoblasts expressing chimeric receptors; format: cell-based
T1 construct: transmembrane domains of the human EGF receptor (amino acids 1–655) was amplified; expressed in transfected cells; host or cells: C2F3 mouse myoblasts, retrovirally transduced (pWZL-Δα-neo, pWZL-Δω-hygro), selected clone
T1 sequence (Q01279 25-1210): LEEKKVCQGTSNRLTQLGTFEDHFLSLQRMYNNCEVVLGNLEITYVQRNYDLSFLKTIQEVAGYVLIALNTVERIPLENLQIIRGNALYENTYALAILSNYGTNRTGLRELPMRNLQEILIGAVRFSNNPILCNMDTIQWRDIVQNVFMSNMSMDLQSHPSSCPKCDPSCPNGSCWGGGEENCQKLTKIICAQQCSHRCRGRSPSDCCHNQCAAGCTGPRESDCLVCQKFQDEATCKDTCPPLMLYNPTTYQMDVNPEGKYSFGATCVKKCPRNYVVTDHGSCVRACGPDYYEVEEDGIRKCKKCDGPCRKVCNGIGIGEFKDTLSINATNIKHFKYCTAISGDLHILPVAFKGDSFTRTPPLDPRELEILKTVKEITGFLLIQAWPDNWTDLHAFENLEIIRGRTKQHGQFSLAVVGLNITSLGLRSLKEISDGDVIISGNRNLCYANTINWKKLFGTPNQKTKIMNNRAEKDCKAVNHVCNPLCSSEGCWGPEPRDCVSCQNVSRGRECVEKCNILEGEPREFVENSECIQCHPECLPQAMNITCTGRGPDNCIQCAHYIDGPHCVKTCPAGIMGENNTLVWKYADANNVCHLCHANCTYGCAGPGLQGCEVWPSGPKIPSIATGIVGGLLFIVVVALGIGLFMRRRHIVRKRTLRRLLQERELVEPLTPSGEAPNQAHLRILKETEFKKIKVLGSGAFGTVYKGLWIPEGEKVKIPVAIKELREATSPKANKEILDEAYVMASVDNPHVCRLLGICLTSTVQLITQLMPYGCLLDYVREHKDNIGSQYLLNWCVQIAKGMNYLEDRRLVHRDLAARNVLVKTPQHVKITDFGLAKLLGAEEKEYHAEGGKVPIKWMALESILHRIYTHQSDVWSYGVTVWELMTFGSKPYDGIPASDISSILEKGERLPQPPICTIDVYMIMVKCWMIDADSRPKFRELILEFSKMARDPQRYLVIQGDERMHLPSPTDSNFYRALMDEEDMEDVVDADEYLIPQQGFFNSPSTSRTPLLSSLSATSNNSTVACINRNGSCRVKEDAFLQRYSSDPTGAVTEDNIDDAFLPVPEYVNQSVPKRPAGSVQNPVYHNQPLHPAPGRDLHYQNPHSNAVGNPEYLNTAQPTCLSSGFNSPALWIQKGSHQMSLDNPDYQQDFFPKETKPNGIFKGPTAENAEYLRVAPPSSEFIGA
Source text: (§1) Construction of chimeric receptors. The weakly complementing Δα and Δω deletion mutants of β-gal were each linked to a polypeptide sequence containing the extracellular and transmembrane domains of the human EGF receptor to form chimeric receptor molecules. The chimeric receptors lacked the cytoplasmic domain, and attendant tyrosine kinase activity, of the native receptor. The procedure was as follows. The sequence coding for the extracellular and transmembrane domains of the human EGF receptor (amino acids 1–655) was amplified by polymerase chain reaction (PCR) using primers that incorporated an NcoI site at the 5′ end and an XhoI site at the 3′ end of the PCR product. Although this fragment retains threonine 654, which is a site of protein kinase C (PKC) phosphorylation, arginines 656 and 657 are removed, destroying the consensus PKC recognition sequence. The amino acid sequence beginning with threonine 654 is thr-leu-glu-ser-met, with the met residue being the beginning of the β-gal sequence. The glu and ser codons are generated by the junction sequence and are not native to either EGF or β-gal.
(§2) DNAs encoding the chimeric receptors were inserted into a retroviral vector also encoding a selectable marker. For the construct containing the EGF receptor-Δα fusion, the selectable marker was the neo gene, encoding G418 resistance; while the EGF receptor-Δω fusion specified hygromycin resistance (FIG. 1B). Accordingly, the EGF receptor PCR product was digested and cloned into the NcoI and XhoI sites of the pWZL-Δα and pWZL-Δω vectors. The pWZL-Δα-neo and pWZL-Δω-hygro plasmids were constructed by cloning the lacZ Δα and Δω deletion mutants into pWZL-neo and pWZL-hygro, respectively. Mohler et al., supra; and Rossi et al. (1997) Proc. Natl. Acad. Sci. USA 94:8405–8410. Plasmids were transfected into φNX cells using Lipofectamine (Life Technologies), and virus-containing supernatant was harvested 48–72 hours later. C2F3 mouse myoblasts (Rastinejad et al. (1993) Cell 72:903–917) maintained in DME with 20% fetal bovine serum (FBS) in 10% CO2, were infected by overnight incubation in the viral supernatant. Cells containing both constructs were selected in 1 mg/ml G418 plus 1 mg/ml hygromycin, and were maintained in 400 μg/ml of each antibiotic.
(§3) EGF treatment and FACS analysis Cells were treated with mouse salivary gland EGF (Sigma) at 100 ng/ml and in some experiments were treated with tyrphostin AG1478 (Calbiochem) at 100 nM. Following all treatments, cells were rinsed with phosphate buffered saline (PBS), trypsinized, and resuspended in PBS+5% FBS. Fluorescein di-β-D-galactopyranoside (FDG; Molecular Probes) was loaded into the cells by hypotonic shock as described. Fiering et al. (1991) Cytometry 12:291–301 and Nolan et al. (1988) Proc. Natl. Acad. Sci. USA 85:2603–2607. Cells were kept on ice until analysis on the cell sorter, which was conducted 1 to 2 hours after trypsinization.
(§4) The chimeric receptor was detected by immunofluorescence using a monoclonal mouse anti-human EGF receptor antibody diluted 1:100 (clone EGFR1, Dako) and either phycoerythrin-labeled horse anti-mouse IgG (Vector) or fluorescein-labeled goat anti-mouse IgG (Cappel) diluted 1:100. Cells were trypsinized and stained in PBS+5% FBS. For each sample, FACS analysis data was collected for 5000 cells. Cells were cloned on a Becton-Dickinson FACS Vantage and analyzed on a Becton-Dickinson FACS can at the Stanford Shared FACS Facility. Data analysis was facilitated by FlowJo software (Tree Star, Inc.). Data shown here as FACS profiles were adjusted for autofluorescence using autofluorescence compensation. Alberti et al. (1987) Cytometry 8:114–119. Mean fluorescence data were adjusted for autofluorescence and for endogenous mammalian β-gal activity by subtracting the mean fluorescence of untransduced cells loaded with FDG substrate.

[2] = molecular target: T2, human EGF receptor (Homo sapiens, UniProt P00533); assay: as above; format: cell-based
T2 construct: transmembrane domains of the human EGF receptor (amino acids 1–655) was amplified; expressed in transfected cells; host or cells: C2F3 mouse myoblasts, retrovirally transduced (pWZL-Δα-neo, pWZL-Δω-hygro), selected clone
Source text: as §1, §2, §3, §4

difference in EGF receptor dimerization between EGF and EGF+tyrphostin treated cells ([1]; by 8 hours of treatment): no difference
Compound: COc1cc2ncnc(Nc3cccc(Cl)c3)c2cc1OC [tyrphostin AG1478, reference compound]
β-gal activity of cells given tyrphostin and EGF versus EGF alone ([1]; 100 nM tyrphostin AG1478 + 100 ng/ml EGF, treatment times of up to 6 hours, FIG. 9B): greater β-gal activity than cells that received EGF alone | effect of repeated administration of tyrphostin on the increased β-gal activity ([1]; tyrphostin every four hours): did not further prolong the increased β-gal activity

time at which dimerization peaked ([2]; 100 ng/ml EGF for 0 to 24 hours, FIG. 8): 2 to 4 h | increase in β-gal activity (chimeric receptor dimerization) in selected clone ([2]; 100 ng/ml EGF for two hours, FIG. 7E): several-fold increase | shortest EGF treatment at which dimerization could be detected ([2]; 100 ng/ml EGF, mean fluorescence, FIG. 7F): one | amount of chimeric receptor on the cell surface (immunofluorescence, FACS) ([2]; 100 ng/ml EGF, over the period that dimerization decreased, FIG. 8): remained essentially constant | response (dimerization) to a second EGF treatment ([2]; during the decline in dimerization, EGF still present): minimal
Compound: EGF: mouse salivary gland EGF (Sigma)

dimerization of chimeric EGF receptor following stimulation with EGF-like growth factor [2]: Dimerization was also observed
Compound: TGF-α: EGF-like growth factor that binds and activates the EGF receptor

dimerization of chimeric EGF receptor following stimulation with EGF-like growth factor [2]: Dimerization was also observed
Compound: betacellulin: EGF-like growth factor that binds and activates the EGF receptor

dimerization of chimeric EGF receptor following stimulation with EGF-like growth factor [2]: Dimerization was also observed
Compound: heparin-binding EGF-like growth factor: EGF-like growth factor that binds and activates the EGF receptor
